Patent publication US20210130485A1 (DENALI THERAPEUTICS, published 2021)
Positions count from the first letter of the chain named.

B1: Clone CH3C.21 (designed binder)
chain: APELLGGPSVFLFPPKPKDTLMISRTPEVTCVVVDVSHEDPEVKFNWYVDGVEVHNAKTKPREEQYNSTYRVVSVLTVLHQDWLNGKEYKCKVSNKALPAPIEKTISKAKGQPREPQVYTLPPSRDELTKNQVSLTCLVKGFYPSDIAVEWESLGLVWVGYKTTPPVLDSDGSFFLYSKLTVPKSTWQQGWVFSCSVMHEALHNHYTQKSLSLSPGK
notes: Modified Fc polypeptide
B2: Clone CH3C.25 (designed binder)
chain: B1 chain with L154M, L156H, P183D
notes: Modified Fc polypeptide
B3: Clone CH3C.34 (designed binder)
chain: B1 chain with G160F, Y161S
notes: Modified Fc polypeptide
B4: Clone CH3C.35.21 (designed binder)
chain: B1 chain with E150W, L154Y, L156T, V157E, V159S, G160S, P183T, S185E, T186E, W191F
notes: Modified Fc polypeptide
B5: Clone CH3C.3.2-1 (designed binder)
chain: B1 chain with L156H, G160N, Y161F
notes: Modified Fc polypeptide; also called CH3C.18.3.2-1

Tests used:
[1] = biological target: T1, Human transferrin receptor protein 1 (TFR1) (human, UniProt P02786 89-760, limits assumed); test: soft randomization libraries selected against human TfR
T1 construct: also called human TfR
T1 sequence (P02786 89-760 limits assumed): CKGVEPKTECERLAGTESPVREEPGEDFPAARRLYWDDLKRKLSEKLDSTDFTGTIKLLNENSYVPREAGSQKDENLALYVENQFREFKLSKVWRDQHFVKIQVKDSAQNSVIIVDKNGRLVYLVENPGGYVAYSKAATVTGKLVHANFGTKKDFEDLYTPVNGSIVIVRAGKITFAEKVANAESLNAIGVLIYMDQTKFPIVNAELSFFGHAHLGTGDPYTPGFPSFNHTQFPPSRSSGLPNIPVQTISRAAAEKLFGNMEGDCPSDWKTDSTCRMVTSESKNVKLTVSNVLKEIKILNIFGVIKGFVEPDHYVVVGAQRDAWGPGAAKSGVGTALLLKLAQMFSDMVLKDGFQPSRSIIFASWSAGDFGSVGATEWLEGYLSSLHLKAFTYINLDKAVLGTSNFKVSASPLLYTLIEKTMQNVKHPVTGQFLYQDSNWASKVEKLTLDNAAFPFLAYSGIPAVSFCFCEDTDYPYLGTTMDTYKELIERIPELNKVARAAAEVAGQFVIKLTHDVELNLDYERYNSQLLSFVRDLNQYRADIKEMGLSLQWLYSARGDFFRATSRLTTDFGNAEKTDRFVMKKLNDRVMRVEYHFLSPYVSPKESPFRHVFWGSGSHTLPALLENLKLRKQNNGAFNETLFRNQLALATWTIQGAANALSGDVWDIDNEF

[2] = biological target: T1, Human transferrin receptor protein 1 …; test: selection of combinatorial CH3 libraries for binders to human TfR, affinity maturation
[3] = biological target: T1, Human transferrin receptor protein 1 …; test: binding ELISA, purified Fab-Fc fusion, TfR coated on the plate
Description: Binding ELISAs were conducted with purified Fab-Fc fusion variants with human or cyno TfR coated on the plate, as described above. The variants from the clone CH3C.18 maturation library, clone CH3C.3.2-1, clone CH3C.3.2-5, and clone CH3C.3.2-19, bound human and cyno TfR with approximately equivalent EC₅₀ values, whereas the parent clones CH3C.18 and CH3C.35 had greater than 10-fold better binding to human versus cyno TfR.
ELISA plates were coated with antigen, typically at […] overnight, then blocked with 1% BSA before addition of phage or periplasmic extracts. […] The plates were washed again, and then developed with TMB reagent and quenched with 2N sulfuric acid. Absorbance at 450 nm was quantified using a plate reader (BioTek®) and binding curves were plotted using Prism software where applicable. Absorbance signal for tested clones was compared to negative control (phage or paraplasmic extract lacking Fc). In some assays, soluble transferrin or other competitor was added during the binding step, typically at significant molar excess (greater than 10-fold excess).

Binder	binding result [1]	other results
B1	binds	–
B2	binds	–
B3	binds	–
B4	–	binding result [2]: binds
B5	–	binding result [3]: binds
